Test results reported in patent publication US20150086555A1.

B1: TCN-547 (5092_F11) (antibody, V domains shown)
VH: QVQLQESGPGLVKPSQTLSLTCTVSGDSISSVDHYWSWIRQHPVKGLEWIGFMYYSASTYYNPSLKSRVTISTDTSKNQFSLRLSSVTAADTAVYYCARGTCAGDCSLHYYYYGLDVWGQGRTVTVSS
VL: DIQMTQSPSSLSASVGDRVTITCRASQSISSYLNWYQHKPGKAPKVLMYAVSILQSGVPSRFSGSGSGADFTLTISSLQPEDFATYYCQQSYSSPLTFGGGTKVEIK
B2: TCN-548 (5092_P01) (antibody, V domains shown)
VH: QVQLQESGPGLVKPSETLSLTCTVSSGPMSDYYWSWIRQPPGKGLEWIGHVSVSHGGRTKSNPSVMSRVTISVETSKNQFSLKLTSVTAADTAVYYCARLNYYDRSGYHSPDGPSNNWFDPWGQGTLVTVSS
VL: not shown

Columns and labels:
Conditions in all cases: remark: other sources report otherwise
[1] = molecular target: recombinant soluble homotrimeric HA of A/duck/Yangzhou/02/05 (H8N4) (Influenza A virus A/duck/Yangzhou/02/2005(H8N4)); assay: HA microarray, BCC supernatant
[2] = molecular target: recombinant soluble homotrimeric HA of A/Solomon Islands/3/06 (H1N1) (Influenza A virus A/Solomon Islands/3/2006(H1N1)); assay: HA microarray, BCC supernatant
[3] = molecular target: recombinant soluble homotrimeric HA of A/Wisconsin/67/05 (H3N2) (Influenza A virus A/Wisconsin/67/2005(H3N2)); assay: HA microarray, BCC supernatant
[4] = molecular target: recombinant soluble homotrimeric HA of A/Netherlands/219/03 (H7N7) (Influenza A virus A/Netherlands/219/03(H7N7)); assay: HA microarray, BCC supernatant
[5] = molecular target: recombinant soluble homotrimeric HA of A/Japan/305/57 (H2N2) (Influenza A virus A/Japan/305/1957(H2N2)); assay: HA microarray, BCC supernatant
[6] = molecular target: recombinant soluble homotrimeric HA of A/swine/Ontario/01911-2/99 (H4N6) (Influenza A virus A/Swine/Ontario/01911-2/99 (H4N6)); assay: HA microarray, BCC supernatant
[7] = molecular target: recombinant soluble homotrimeric HA, A/northern shoveler/California/HKWF115/07 H6N4 (Influenza A virus A/northern shoveler/California/HKWF115/2007(H6N1)); assay: microarray, transfection SN IgG, trimeric HA
[8] = molecular target: recombinant soluble homotrimeric HA, A/Netherlands/219/03 H7N7 (Influenza A virus A/Netherlands/219/03(H7N7)); assay: microarray, transfection SN IgG, trimeric HA
[9] = molecular target: recombinant soluble homotrimeric HA, A/South Carolina/1/18 H1N1 (Influenza A virus A/South Carolina/1/18 (H1N1)); assay: microarray, transfection SN IgG, trimeric HA
[10] = molecular target: recombinant soluble homotrimeric HA, A/Solomon Islands/3/06 H1N1 (Influenza A virus A/Solomon Islands/3/2006(H1N1)); assay: microarray, transfection SN IgG, trimeric HA
[11] = molecular target: recombinant soluble homotrimeric HA, A/swine/Ontario/01911-2/99 H4N6 (Influenza A virus A/Swine/Ontario/01911-2/99 (H4N6)); assay: microarray, transfection SN IgG, trimeric HA
[12] = molecular target: recombinant soluble homotrimeric HA, A/duck/Yangzhou/02/05 H8N4 (Influenza A virus A/duck/Yangzhou/02/2005(H8N4)); assay: microarray, transfection SN IgG, trimeric HA
[13] = molecular target: recombinant soluble homotrimeric HA, A/Egypt/3300-NAMRU3/08 H5N1 (Influenza A virus A/Egypt/3300-NAMRU3/2008(H5N1)); assay: microarray, transfection SN IgG, trimeric HA
[14] = molecular target: recombinant soluble homotrimeric HA, A/Wisconsin/67/05 H3N2 (Influenza A virus A/Wisconsin/67/2005(H3N2)); assay: microarray, transfection SN IgG, trimeric HA
[15] = molecular target: recombinant soluble homotrimeric HA, A/chicken/Vietnam/NCVD-016/08 H5N1 (Influenza A virus A/chicken/Vietnam/NCVD-016/2008(H5N1)); assay: microarray, transfection SN IgG, trimeric HA
[16] = molecular target: recombinant soluble homotrimeric HA, A/Japan/305/57 H2N2 (Influenza A virus A/Japan/305/1957(H2N2)); assay: microarray, transfection SN IgG, trimeric HA
[17] = molecular target: recombinant soluble homotrimeric HA of A/California/4/09 (H1N1) (Influenza A virus A/California/04/2009(H1N1)); assay: HA microarray, BCC supernatant
[18] = molecular target: recombinant soluble homotrimeric HA, A/California/4/09 H1N1 (Influenza A virus A/California/04/2009(H1N1)); assay: microarray, transfection SN IgG, trimeric HA

Binder	Trimeric HA Binding: RLU [1] [RLU]	Trimeric HA Binding: RLU [2] [RLU]	Trimeric HA Binding: RLU [3] [RLU]	Trimeric HA Binding: RLU [4] [RLU]	Trimeric HA Binding: RLU [5] [RLU]	Trimeric HA Binding: RLU [6] [RLU]	Trimeric HA Binding: RLU [7] [RLU]	Trimeric HA Binding: RLU [8] [RLU]	Trimeric HA Binding: RLU [9] [RLU]	Trimeric HA Binding: RLU [10] [RLU]	Trimeric HA Binding: RLU [11] [RLU]	Trimeric HA Binding: RLU [12] [RLU]	Trimeric HA Binding: RLU [13] [RLU]	Trimeric HA Binding: RLU [14] [RLU]	Trimeric HA Binding: RLU [15] [RLU]	Trimeric HA Binding: RLU [16] [RLU]	Trimeric HA Binding: RLU [17] [RLU]	Trimeric HA Binding: RLU [18] [RLU]
B1	278	155	16900	401	40	252	2620	2090	2020	1080	1600	3340	16800	6970	1320	1350	–	–
B2	184	283	–	758	416	240	2100	2130	1150	750	1620	5740	–	–	1060	1020	234	818
